According to the DeepSol protein solubility set:

Test: soluble on expression in E. coli; label from the status in PepcDB or PDB records
For “TLFDGIARAVCRAGCLPRKELYEAWEVARRVRRRFRGGRVVDLACGHGLLAWIMLLLDDSSPGALAVDRRLPPSAAGLAAVLETEWPRLRGRVRLLEADLAEVELGRDDLVVSAHACGGLTDLVLARAVAAGARVAVLPCCHDLAGADLAGLQGWLDGPLAMDVLRATGLRERGYRVFTQQ”, the “soluble on expression in E. coli” value was “not soluble”.
In the case of “TLTVNGPPIISSTQTQHALHGEKGQIKCFIRSTPPPDRIAWSWKENVLESGTSGRYTVETISTEEGVISTLTISNIVRADFQTIYNCTAWNSFGSDTEIIRLKEQGSEM”, the “soluble on expression in E. coli” value is reported as “soluble”.
For “TMLCVLTTDAAAEPAALERALRRAAAATFDRLDIDGSCSTNDTVLLLSSGASEIPPAQADLDEAVLRVCDDLCAQLQADAEGVTKRVTVTVTGAATEDDALVAARQIARDSLVKTALFGSDPNWGRVLAAVGMAPITLDPDRISVSFNGAAVCVHGVGAPGAREVDLSDADIDITVDLGVGDGQARIRTTDLSHAYVEENSAYSS”, the “soluble on expression in E. coli” value was “soluble”.
In the case of “TMNPLYSVKRAEKRRNVVLGRMLEVGKITQQQYEQAKAETVTATFYGTALEFRADYVTEMIRQEMVKRYGEDVAYNKGF”, the “soluble on expression in E. coli” value is reported as “not soluble”.
With “TNLISVNSRSYRLSSAPTIVICVDGCEQEYINQAIQAGQAPFLAELTGFGTVLTGDCVVPSFTNPNNLSIVTGAPPSVHGICGNFFFDQETQEEVLMNDAKYLRAPTILAEMAKAGQLVAVVTAKDKLRNLLGHQLKGICFSAEKADQVNLEEHGVENILARVGMPVPSVYSADLSEFVFAAGLSLLTNERPDFMYLSTTDYVQHKHAPGTPEANAFYAMMDSYFKRYHEQGAIVAITADHGMNAKTDAIGRPNILFLQDLLDAQYGAQRTRVLLPITDPYVVHHGALGSYATVYLRDAVPQRDAIDFLAGIAGVEAVLTRSQACQRFELPEDRIGDLVVLGERLTVLGSAADKHDLSGLTVPLRSHGGVSEQKVPLIFNRKLVGLDSPGRLRNFDIIDLALNHLA” the “soluble on expression in E. coli” value was “soluble”.
In the case of “TPAGSFGLEFSFSYQKFTASFQPNYRRQTYSYSNTYEWHDANNVQNYLQLTYNQKTQLDYIEFPLFIRYDIISGAFKPFVQAGFYYAILNSATKQLNIEGVDHSGGTSRSFTEPVTIIGADDLFINSSIGAALGLGTSYKVGNIRLILDATYRMGLNNISNVQNRYISNSLSGAGDVSDDLKLNNITFSFGCLFPMKFLISPSHKAVD”, the “soluble on expression in E. coli” value is reported as “not soluble”.
In the case of “TPLSRSERIELQSLLSARQYDAGAPDGIIGANTRKAIRSAQQSFGWPADGYPTHELLEALRKPVGQ”, the “soluble on expression in E. coli” value is reported as “not soluble”.
In the case of “TPTTFVHLFEWNWQDVAQECEQYLGPKGYAAVQVSPPNEHITGSQWWTRYQPVSYELQSRGGNRAQFIDMVNRCSAAGVDIYVDTLINHMAAGSGTGTAGNSFGNKSFPIYSPQDFHESCTINNSDYGNDRYRVQNCELVGLADLDTASNYVQNTIAAYINDLQAIGVKGFRFDASKHVAASDIQSLMAKVNGSPVVFQEVIDQGGEAVGASEYLSTGLVTEFKYSTELGNTFRNGSLAWLSNFGEGWGFMPSSSAVVFVDNHDNQRGHGGAGNVITFEDGRLYDLANVFMLAYPYGYPRVMSSYDFHGDTDAGGPNVPVHNNGNLECFASNWKCEHRWSYIAGGVDFRNNTADNWAVTNWWDNTNNQISFGRGSSGHMAINKEDSTLTATVQTDMASGQYCNVLKGELSADAKSCSGEVITVNSDGTINLNIGAWDAMAIHKNAKLNTSSAS”, the “soluble on expression in E. coli” value is reported as “soluble”.
With “TRTEISPGKAPFTIEHNQTVVTIGSCFSDMIGEKLQYYKFDVLANPFGTTFNPISIFQLLTIAIEKKFNPFPASLGEIWYDHQFHSEVSALSAEALHELTNERIAAATKSLARASCLVITLGSAWVYRHVETNTIVNNCHKQSGRYFKKELLSVKHILEDFETVYAKLKELNPSIKIIFTVSPVRHIKDTLQLNSVSKAILLSSVHYMCEQHTDCHYFPSYEIQMDDLRDYRYYAEDLIHPSKQAEKYIWKKLSNWVFSSDLLAALEEWDQLQKLLHHKAF” the “soluble on expression in E. coli” value was “not soluble”.
For “TSLKQNQLNLSTLLVNPEGPTLTQLNSVQSSERPLFLVHPIEGSTTVFHSLAAKLSVPTYGLQCTQAAPLDSIPNLAAYYIDCIKQVQPEGPYRIAGYSFGACVAFEMCSQLQAQQGPAPTHNNLFLFDGSHTYVLAYTQSYRAKMTPGCEAEAEAEALCFFIKQFLDVEHSKVLEALLPLKSLEDRVAASVDLITKSHHSLDRRELSFAAVSFYHKLRAADQYKPKAKYHGNVTLLRAKTGGTYGEDLGADYNLSQVCDGKVSVHIIEGDHRTLLEGSGLESIINIIHSS”, the “soluble on expression in E. coli” value was “soluble”.
With “TSTMGNLQTAINDKSGTLASQNFLDADEQKRNAYNQAVSAAETILNKQTGPNTAKTAVEQALNNVNNAKHALNGTQNLNNAKQAAITAINGASDLNQKQKDALKAQANGAQRVSNAQDVQHNATELNTA” the “soluble on expression in E. coli” value was “soluble”.
With “TYKKPSDAELKRTLTEEQYQVTQNSATEYAFSHEYDHLFKPGIYVDVVSGEPLFSSADKYDSGSGWPSFTRPIDAKSVTEHDDFSYNMRRTEVRSHAADSHLGHVFPDGPRDKGGLRYSINGASLKFIPLEQMDAAGYGALKSKVK” the “soluble on expression in E. coli” value was “soluble”.
In the case of “TYSLRTFFVRESAEGLTQGELMKLIKEIVENEDKRKPYSDQEIANILKEKGFKVARRTVAKYREMLGIPSSRERRI”, the “soluble on expression in E. coli” value is reported as “soluble”.
With “VADTDGHYRVRAITEISSFNETLGATFSDKEFDTIGGLVINKFGRLPKNGESITIEGFNFTVTRADSRRLHLLKVERIEPGVVEDADSHDSV” the “soluble on expression in E. coli” value was “not soluble”.
For “VAEKPYLKDPEVAAGYHRVAKRELPEPKIMEVPQRFAAYVRHEGYNRSIRNAWLILKAWASSENRDFSVQYGLHHSNPAWVELDKCRYVACMAIDKPLKVRGVVNQMTIPGGLHAVFRLTGVYGELLPQLSMVLEKWLPNSGFKQRSTPAYVHYHKNHFLSHDEAFELDFYLPISFF”, the “soluble on expression in E. coli” value was “not soluble”.
With “VAKQRPDGIRAYEDPAGGWGALKALAVALKDQQLVVEGIPTLLKQNQPEGFDCPGCAWPDPKHTSAFEFCENGAKAVTWESTPKRVGPDFFAQHTVTSLWECSDYWLEDQGRLTHPMRYDAQTDKYEPVDWQVAFDDIAAKLDALDDPNQLELYTSGRASNEAAFLFQLFGRQFGTNNFPDCSNMCHEPTSVGLPRSIGIGKGTVTLDDFDKAELIISMGHNPGTNHPRMMTPLRNASRRGVKIIVLNPLKERALERFEAPQAPLEMATTSSTPIASCYFQVKVGGDAAALKGICKALVAADKVARAADLAPLLDHTFIVGHTAGFDALVDDLEGCSWSAIERASGLPRADMERIAADYAASNATIVCYGMGITQHVTGTANVQQIANLLLLKGNIGKPGAGICPLRGHSNVQGDRTVGITERPSEAFLDRLRDVFGFEPPRAFGHSVVDSIAAMRDGRAKAVICLGGNLAMAASDPQACFKGFRRLDLAVHLATKLNRTHLLTSKTTYLFPVLGRTDSDIQASGRQALTVEDSMSMVHASRGFLTPPSDQVRSEVAILAGIAKATLRSKSRVDWDALAGNYDLIRDAIEEVFPDFEAYNDRIRKPGGFQLPNSAAMRIWNTPTGKANFAIFAGLEEDETSTDRDVLRMTSLRAHDQYNTTIYGLNDRYRGVFGRRDVLFLNPKDLARLGFAEGDVVDVATALDYARPDRVVQALTLVSYNLPDGCCASYYPEIQPLVALEFRDPECLTPSYKSIPVKVTAARAPLAADRAVGRDGIVGREPGVETATGPSPVSLID” the “soluble on expression in E. coli” value was “soluble”.
For “VELKVKRFPISRYQANNEASDDLIKGAFVGLTNVTFSFAGNIVRVVDTGMDILYNLQPIDEFANSITNVSKTVYKTLKKN”, the “soluble on expression in E. coli” value was “not soluble”.
In the case of “VFQSILDEIDVGLHVVDEHGNTIVYNNKMMQIEDMEKHDVLNKNLMDVFMFSKQQDSTLVQALQEGKTIKNVKQSYFNNKGQEITTINHTYPIVQDGKIRGAVEIAKDVT”, the “soluble on expression in E. coli” value is reported as “not soluble”.
In the case of “VHNAGRMVVMKSRPLGEAEAVLDPSSATVDDFSISRGGDTIAYVKMGPTSPPDIYIYRDDNEYRLTDHNAWFAESRSLAEPVRLQVQSPLGGSIDAWILLPPDAGECSGCLPWILYIHGGPKTSYGYAFIHEFQMLASQGFAVIYSNPRGSDGYSEEFADLRGRYGVDDYSELMKVVDEALSDFPQLDPQRGGVTGGSYGGYMTNVIVTKTRRFKAAVTQRSCSNWISFYGESDIGWYFAPELISAQEPWRDLEKYVDFSPLFSVENIETPLLIIHSTEDFRCPLSGAIQLFTALKLKGVETRLLVFPGENHNLSRSGTPKRRVARLRAIASWFKEHLG”, the “soluble on expression in E. coli” value is reported as “not soluble”.
For “VKIFERFRKACDEFFKKKGEFFKLLKEGMNANLEKKKALCEKAESLKDSTEWKETAEILTKLQKEWKTIGPVSKKYS”, the “soluble on expression in E. coli” value was “not soluble”.
With “VKNSNGVREKDGKPFRVELYYAGSDTVRRDIAIEFSSQMKKLGLDFPTIASTWDEIETKLGDVSVVLGGGSAPYDLTIMAYEYLHTRTPSTGKWANPGDYGSEKLNALLDQARSEVDVEKRNNLWRKIQAEYVNNPSALNLVNIDHVYVGKKNDWKKPELLLEPHIHGVTWGPWWRISEWTK” the “soluble on expression in E. coli” value was “not soluble”.
In the case of “VKSYKSGASAIDVIVTTPDIARINAIAAMKKGSALTTEETMQVPAAGWPVMIFSHGITSYKETVLAISGTLASQGIATISIDHPYHGARGIDFNADGVYEISATSSLSDSDPAYVNANVTSYMNLASLLTARDNVRQSEVDLLALRLSLNSVNLAGQLDATKVSFLGHSLGAITGIPVMALANSGI”, the “soluble on expression in E. coli” value is reported as “not soluble”.
In the case of “VLAGIDALESSGFAAVAGKRIALVTNRSGVDRLGRRTIDLLAHAPGARLVAIFAPEHGLGTDVDAPFGDAIDADTNVVVHSLYGSRRRIAPEALSNVDVLVFDIQDAGVRFFTYLATLGYVLEAAAAAHVPVVVLDRPNPLGGDVVGGPVSDADIGSFTNYYPLPLAPGMTIGELAKLFDDRLRIGADLVVVPMENYRRWMRYGDTGLGGLPPSPNLRDAAALSLYPDIGLVEGADVSVGRGTATPFGVLGAPWIDGRALADDLRAMHLSATFTPARFVPTEGPYRGALCEGVRIERLPGPVRPGRIGLAVALALHRRYPDRFRIDAIRASVGSRAVADMLADGRPLDEIEQVVDTQNAAFSRERAAYLLY”, the “soluble on expression in E. coli” value is reported as “not soluble”.
For “VLGDKEWVYLPGLKESFKARIDTGATTSSISAVDIVPFERGGQDWVKFRIEHDNIRSEELSLPVERWVRIRQSSAEEAQRRAVVVAWIQIGDLKEQTEFTLTDRTHLTYPLLLGRSFFKDVAVVDVSRHYIQPKHPSPKK”, the “soluble on expression in E. coli” value was “not soluble”.
With “VLKLDRQTQIWNRASLESGGATPAAGDIALASLLLAHGLAMNGGVAHAIESLSQAEIAAAIDGFNYFGLTDASHVFEQRPDDSEDVEERLNMMYRTAVPNDRVLAHAFRVKLVSTPSAFAPIDHGAHV” the “soluble on expression in E. coli” value was “not soluble”.
With “VLLHSKEVAYIAGLMAEELGLDAKLARRAGLLHDIGKAISHELGGSHTDIGVELARKYGEPDAVINAIRAHHEEEPVRYPEVALVCAADALSAA” the “soluble on expression in E. coli” value was “not soluble”.
For “VLSAIGIVPSAPVLVPELAGAAAAELADLGAAVIAAASLLPKSWIAVGTGRADDVVRPTDVGTFAGFGADVRVGLAPQDGDGVAVPVELPLCALLTAWVRGQARPEARAQVHVYASDHGSDAAVARGRQLRADIDREPDPIGVLVVADGLNTLTPRAPGGYDPDGAGMQRALDDALASGDLAVLTRLPAQVLGRVAFQVLAGLAEPGPRSAKEFYRGAPHGVGYFAGVWQP”, the “soluble on expression in E. coli” value was “not soluble”.
In the case of “VQERIKACFTESIQTQIAAAEALPDAISRAAMTLVQSLLNGNKILCCGNGTSAANAQHFAASMINRFETERPSLPAIALNTDNVVLTAIANDRLHDEVYAKQVRALGHAGDVLLAISTRGNSRDIVKAVEAAVTRDMTIVALTGYDGGELAGLLGPQDVEIRIPSHRSARIQEMHMLTVNCLCDLIDNTLFPHQDD”, the “soluble on expression in E. coli” value is reported as “soluble”.
